Experimental findings from US20230159610A1 (BIOTEST, published 2023) are described below.

This series concerns the molecule itself. Description: dimer formation of the expressed construct (self-association), Western blot of transfected cells.

B1: FcTregV32 (other)
chain: DKTHTCPPCPAPELLGGPSVFLFPPKPKDTLMISRTPEVTCVVVDVSHEDPEVKFNWYVDGVEVHNAKTKPREEQYGGLVQPGGSLRLSCAASGFTFEYKCKVSNKALPAPIEKTISKAKGTDFTLTISSLQPEDRDELTKNQVSLTCLVKGFYPSDIAVEWESNGQPENNYKTTGGLVQPGGSLRLSCAASGFTFRWQQGNVFSCSVMHEALHNHYTQKSLSLSPGKKTLYLQMNSLRAEDTAKH
notes: TCP on the human IgG1 Fc-part: Treg009A in frame A, Treg084 in frame C, Treg009A in frame B, Treg088x C-terminal; also called Construct V32
Turning to B1, the binding result is on record as “binds”.

B2: FcTregV1 (other)
chain: DKTHTCPPCPAPELLGGPSVFLFPPKPKDTLMISRTPEVTCVVVDVSHEDPEVKFNWYVDGVEVHNAKTKPREEQYQSTYRVVSVLTVLHQDWLNGKEYKCKVSNKALPAPIEKTISKAKGTDFTLTISSLQPEDDELTKNQVSLTCLVKGFYPSDIAVEWESNGQPENNYKTTPPVLDSDGSFFLYSKLTVDKSRWQQGNVFSCSVMHEALHNHYTQKSLSLSPGKLNNFYPREAKVQWKVDNALQSGNS
notes: Tregitope carrying polypeptide (TCP) built on the human IgG1 Fc-part: Treg289 in frame A, Treg084 in frame C, Treg134 C-terminal; also called Construct V1
Turning to B2, the binding result is listed as “binds”.

B3: FcTregV14 (other)
chain: DKTHTCPPCPAPELLGGPSVFLFPPKPKDTLMISRTPEVTCVVVDVSHEDPEVKFNWYVDGVEVHNAKTKPREEQYNSTYRVVSVLTVLHQDWLNGKEYKCKVSNKALPAPIEKTISKAKGTDFTLTISSLQPEDDELTKNQVSLTCLVKGFYPSDIAVEWESNGQPENNYKTTPPVLDSDGSFFLYSKLTVDKSRWQQGNVFSCSVMHEALHNHYTQKSLSLSPGKLNNFYPREAKVQWKVDNALQSGNS
notes: TCP on the human IgG1 Fc-part: Treg084 in frame C, Treg134 C-terminal; also called Construct V14
Consider B3, for which the binding result is recorded as “binds”.

B4: FcTregV23 (other)
chain: DKTHTCPPCPAPELLGGPSVFLFPPKPKDTLMISRTPEVTCVVVDVSHEDPEVKFNWYVDGVEVHNAKTKPREEQYNSTYRVGTDFTLTISSLQPEDEYKCKVSNKALPAPIEKTISKAKGQPREPQVYTLPPSRDELTKNQVSLTCLVKGFYPSDIAVEWESNGQPENNYKTTPPVLDSDGSFFLYSKLTVDKSRWQQGNVFSCSVMHEALHNHYTQKSLSLSPGK
notes: Human IgG1 Fc-part with Treg084 in frame A; also called Construct V23
Consider B4, for which the binding result is “binds”.

B5: FcTregV13 (other)
chain: DKTHTCPPCPAPELLGGPSVFLFPPKPKDTLMISRTPEVTCVVVDVSHEDPEVKFNWYVDGVEVHNAKTKPREEQYQSTYRVVSVLTVLHQDWLNGKEYKCKVSNKALPAPIEKTISKAKGTDFTLTISSLQPEDDELTKNQVSLTCLVKGFYPSDIAVEWESNGQPENNYKTTPPVLDSDGSFFLYSKLTVDKSRWQQGNVFSCSVMHEALHNHYTQKSLSLSPGKKTLYLQMNSLRAEDTAKH
notes: TCP on the human IgG1 Fc-part: Treg289 in frame A, Treg084 in frame C, Treg088x C-terminal; also called Construct V13
Turning to B5, the binding result is “binds”.

B6: FcTregV20 (other)
chain: DKTHTCPPCPAPELLGGPSVFLFPPKPKDTLMISRTPEVTCVVVDVSHEDPEVKFNWYVDGVEVHNAKTKPREEQYNSTYRVVSVLTVLHQDWLNGKEYKCKVSNKALPAPIEKTISKAGGLVQPGGSLRLSCAASGFTFNQVSLTCLVKGFYPSDIAVEWESNGQPENNYKTTPPVLDSDGSKTLYLQMNSLRAEDTAKHVFSCSVMHEALHNHYTQKSLSLSPGK
notes: also called Construct V20
On to B6, for which the binding result is reported as “binds”.

B7: FcTregV34 (other)
chain: DKTHTCPPCPAPELLGGPSVFLFPPKPKDTLMISRTPEVTCVVVDVSHEDPEVKFNWYVDGVEVHNAKTKPREEQYNSTYRVVSVLTVLHQDWLNGKEYKCKVSNKALPAPIEKTISKAKGQPREPQVYTLPPSRDELTKNQVSLTCLVKGFYPSDIAVEWESNGQPENNYKTTPPEEQYQSTYRVVSVLTVLHQDWQQGNVFSCSVMHEALHNHYTQKSLSLSPGKKTLYLQMNSLRAEDTAKH
notes: TCP on the human IgG1 Fc-part: Treg289 in frame B, Treg088x C-terminal; also called Construct V34
For B7, the binding result was “binds”.
